Observed cross-reactivity (%) data for 1 substance are collected here from US20110294227A1.

What all share (test): DELFIA Xpress PlGF sandwich immunoassay; tested substance at 5000 pg/mL
Assay [1] concerns the target PlGF-1 (glycosylated), purified recombinant placental growth factor isoform 1 (human) (UniProt P49763).
The target in assay [2] is PlGF-3 (non-glycosylated), purified recombinant placental growth factor isoform 3 (human) (UniProt P49763).
For assay [3], the target named is PlGF-2 (glycosylated), purified recombinant placental growth factor isoform 2 (human).
Chain of PlGF-2 (glycosylated), purified recombinant placental growth factor isoform 2 (human) (chain, as listed by the source limits assumed): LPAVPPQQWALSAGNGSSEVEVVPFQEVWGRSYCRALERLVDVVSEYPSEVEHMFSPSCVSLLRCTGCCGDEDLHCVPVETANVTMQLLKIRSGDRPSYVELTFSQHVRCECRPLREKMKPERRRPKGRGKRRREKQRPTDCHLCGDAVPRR

As for “P1GF-1 antibody provided with the DELFIA Xpress kit (commercial DELFIA Xpress P1GF method, PerkinElmer)”, the Observed cross-reactivity (%) in assay [1] was 33%; in assay [2], 5%; in assay [3], 16%.
